Target: Flag-β2AR (UniProt P07550)
Test: cell-based or functional assay

β2AR degradation after 24 hrs of isoproterenol treatment (125I CYP binding on whole HEK 293 cells; mock about 25%): 6 to 7%
Substance: β-arrestin2 (from UniProt P29067 1-410)
